Measured values published in patent US9492315B2, “Implantable therapeutic device” (ForSight Vision4, Inc., priority 2010, dated 2016).
Like-named read-outs stand apart in the source and are kept apart here.

Tests used:
[1] = test system: Grade IV choroidal neovascularization (CNV) lesions; details: intravitreal injection, all doses tested, cynomolgus monkeys, laser photocoagulation model; cited from earlier work
[2] = Determined concentration profiles of Lucentis/ranibizumab in the vitreous humor for injections into the device or bolus (FIGS. 19B-19T, 32A-32E, 37); set-up: species or system human; details: parameter used for FIGS. 19K to 19P, half-life 9 days
Source text: The therapeutic device 100 can be tuned to deliver a target therapeutic concentration profile based on the volume of formulation injected into the device. The injected volume may comprise a substantially fixed volume, for example within about +/−30% of an intended predetermined target volume. The volume of the reservoir can be sized with the release rate index so as to release the therapeutic agent for an extended time substantially greater than the treatment time of a corresponding bolus injection. The device can also be tuned to release the therapeutic agent based on the half life of the therapeutic agent in the eye. The device volume and release rate index comprise parameters that can be tuned together based on the volume of formulation injected and the half life of the therapeutic agent in the eye. The following equations can be used to determine therapeutic device parameters suitable for tuning the device. Rate=Vr(dCr/dt)=−D(PA/TL)Cr where Rate=Rate of release of therapeutic agent from device Cr=concentration of therapeutic agent in reservoir Vr=volume of reservoir D=Diffusion constant PA/TL=RRI P=porosity A=area T=tortuosity=F=channel parameter. […]
These concentration profiles were determined with modeling and calculations as described herein. […]

[3] = Calculations of Lucentis concentrations in the vitreous, monkey model (bolus injections and device Simulations 1-5); details: parameter applied in Simulations 1-5 (column = simulation)
Source text: A model can be derived to describe the release rate as a function of time by relating the change of concentration in the reservoir to the release rate described above. This model assumes a solution of therapeutic agent where the concentration in the reservoir is uniform. In addition, the concentration in the receiving fluid or vitreous is considered negligible (cV=0). Solving the differential equation and rearrangement yields the following equations describing the concentration in the reservoir as a function of time, t, and volume of the reservoir, VR, for release of a therapeutic agent from a solution in a reservoir though a porous structure. cR=cR0exp((−DPA/FLVR)t) and Cumulative Release=1−cR/cR0
A bolus injection into the vitreous may be modeled as a single exponential with rate constant, k=0.693/half-life and a cmax=dose/Vv where Vv is the vitreous volume. […] The vitreous volume is approximately 1.5 mL for the rabbit and monkey and 4.5 mL for the human eye. […] This concentration decays to a vitreous concentration of 0.1 ug/mL after about a month.
For devices with extended release, the concentration in the vitreous changes slowly with time. […]
The first column used the measured Cmax (Gaudreault et al.) while the second used a calculated Cmax based on the dose and volume of the vitreous.

[4] = test system: retinal thickness / lesion size in wet AMD; test: Low dose Lucentis MIC study in wet AMD patients with OCT imaging (Example 18); type: in vivo, human
Source text: OCT (Optical Coherence Tomography) imaging was used to assess the condition of the region of the macula at the back surface of the treated eye. The OCT technique relies on the measurement of certain properties of light (e.g. echo time, intensity of reflection) that has been directed at the area of study and can measure very small amounts of reflected light. Because these cellular features are essentially transparent it is possible to use OCT methodology to generate three dimensional representations of the area.
The regions of interest were analyzed with a two dimensional representation of the cross section of the retinal wall at one longitudinal scan location of the OCT image. In these “OCT scan” images is it possible to interrogate very local areas of interest more specifically. The OCT scans were carefully selected to directly compare the thickness and anatomical structure of specific sites within a lesion, pre and post treatment, for the purpose of assessing the effect of injected drug including a reduction in sub-retinal fluid.
The OCT images were measured the day after injection and at 2-3 days post injection.
Further studies can be conducted by one or ordinary skill in the based on the teachings described herein to determine empirically the MIC for a sustained release device and cumulative effect of the drug over the time of release.

[5] = rabbit and monkey (Gaudreault et al.), cited from earlier work
[6] = humans (Lucentis package insert); cited from earlier work

For ranibizumab [Lucentis], the “development of Grade IV CNV lesions” value [1] is given as “completely inhibited”, the “Rate constant, k” value [2] is given as 0.077 day⁻¹ and the “Rate constant, k” value [3] is given as 0.264 day⁻¹. For the same substance, the “Treatment Effect Observed?” value ([4]; decrease in size of the lesion on OCT after low dose bolus, patient # in r2, dose in r4) was “Yes”, the “MIC for a sustained release device” value ([4]; human patients, wet AMD) was ≤ 1 ug per ml and the “half-life in the vitreous” value [5] was “two to four”. For the same substance, the “half-life in the vitreous” value ([5]; listed as ranibizumab) was “approximately 3 days” and the “half-life in the vitreous” value [6] was ~220 h.
